From the Human Domainome abundance scans (Beltran et al. 2025)
± gives the uncertainty stated by the source.

B1: Mineralocorticoid receptor, residues 600 to 675; numbered along this chain, P08235 (parent)
chain: SKICLVCGDEASGCHYGVVTCGSCKVFFKRAVEGQHNYLCAGRNDCIIDKIRRKNCPACRLQKCLQAGMNLGARKS

Variants of: B1
Assay: abundance fitness (aPCA) (normalised: wild type 0, dead -1); higher = more abundant; growth selection in yeast, the domain comes from the species named
Settings: Homo sapiens

| Variant | abundance fitness |
| --- | --- |
| SKICLVCQDEASGCHYGVVTCGSCKVFFKRAVEGQHNYLCAGRNDCIIDKIRRKNCPACRLQKCLQAGMNLGARKS | -0.095 ± 0.061 |
| SKICLVCWDEASGCHYGVVTCGSCKVFFKRAVEGQHNYLCAGRNDCIIDKIRRKNCPACRLQKCLQAGMNLGARKS | -0.27 ± 0.069 |
| SKICLVCVDEASGCHYGVVTCGSCKVFFKRAVEGQHNYLCAGRNDCIIDKIRRKNCPACRLQKCLQAGMNLGARKS | -0.621 ± 0.078 |
| SKICLVCRDEASGCHYGVVTCGSCKVFFKRAVEGQHNYLCAGRNDCIIDKIRRKNCPACRLQKCLQAGMNLGARKS | -0.043 ± 0.039 |
| SKICLVCNDEASGCHYGVVTCGSCKVFFKRAVEGQHNYLCAGRNDCIIDKIRRKNCPACRLQKCLQAGMNLGARKS | -0.235 ± 0.14 |
| SKICLVCYDEASGCHYGVVTCGSCKVFFKRAVEGQHNYLCAGRNDCIIDKIRRKNCPACRLQKCLQAGMNLGARKS | -0.248 ± 0.17 |
| SKICLVCTDEASGCHYGVVTCGSCKVFFKRAVEGQHNYLCAGRNDCIIDKIRRKNCPACRLQKCLQAGMNLGARKS | -0.079 ± 0.072 |
| SKICLVCMDEASGCHYGVVTCGSCKVFFKRAVEGQHNYLCAGRNDCIIDKIRRKNCPACRLQKCLQAGMNLGARKS | -0.062 ± 0.07 |
| SKICLVCSDEASGCHYGVVTCGSCKVFFKRAVEGQHNYLCAGRNDCIIDKIRRKNCPACRLQKCLQAGMNLGARKS | -0.057 ± 0.055 |
| SKICLVCGDEISGCHYGVVTCGSCKVFFKRAVEGQHNYLCAGRNDCIIDKIRRKNCPACRLQKCLQAGMNLGARKS | -0.354 ± 0.14 |
| SKICLVCGDEWSGCHYGVVTCGSCKVFFKRAVEGQHNYLCAGRNDCIIDKIRRKNCPACRLQKCLQAGMNLGARKS | -0.22 ± 0.056 |
| SKICLVCGDEHSGCHYGVVTCGSCKVFFKRAVEGQHNYLCAGRNDCIIDKIRRKNCPACRLQKCLQAGMNLGARKS | -0.13 ± 0.082 |
| SKICLVCGDECSGCHYGVVTCGSCKVFFKRAVEGQHNYLCAGRNDCIIDKIRRKNCPACRLQKCLQAGMNLGARKS | -0.123 ± 0.094 |
| SKICLVCGDEKSGCHYGVVTCGSCKVFFKRAVEGQHNYLCAGRNDCIIDKIRRKNCPACRLQKCLQAGMNLGARKS | -0.101 ± 0.06 |
| SKICLVCGDEPSGCHYGVVTCGSCKVFFKRAVEGQHNYLCAGRNDCIIDKIRRKNCPACRLQKCLQAGMNLGARKS | -0.001 ± 0.054 |
| SKICLVCGDELSGCHYGVVTCGSCKVFFKRAVEGQHNYLCAGRNDCIIDKIRRKNCPACRLQKCLQAGMNLGARKS | -0.16 ± 0.039 |
| SKICLVCGDEYSGCHYGVVTCGSCKVFFKRAVEGQHNYLCAGRNDCIIDKIRRKNCPACRLQKCLQAGMNLGARKS | -0.245 ± 0.077 |
| SKICLVCGDEDSGCHYGVVTCGSCKVFFKRAVEGQHNYLCAGRNDCIIDKIRRKNCPACRLQKCLQAGMNLGARKS | -0.134 ± 0.072 |

| Variant | abundance fitness |
| --- | --- |
| SKICLVCGDESSGCHYGVVTCGSCKVFFKRAVEGQHNYLCAGRNDCIIDKIRRKNCPACRLQKCLQAGMNLGARKS | -0.044 ± 0.044 |
| SKICLVCGDEFSGCHYGVVTCGSCKVFFKRAVEGQHNYLCAGRNDCIIDKIRRKNCPACRLQKCLQAGMNLGARKS | -0.194 ± 0.15 |
| SKICLVCGDEMSGCHYGVVTCGSCKVFFKRAVEGQHNYLCAGRNDCIIDKIRRKNCPACRLQKCLQAGMNLGARKS | -0.135 ± 0.074 |
| SKICLVCGDERSGCHYGVVTCGSCKVFFKRAVEGQHNYLCAGRNDCIIDKIRRKNCPACRLQKCLQAGMNLGARKS | -0.089 ± 0.041 |
| SKICLVCGDEGSGCHYGVVTCGSCKVFFKRAVEGQHNYLCAGRNDCIIDKIRRKNCPACRLQKCLQAGMNLGARKS | -0.043 ± 0.039 |
| SKICLVCGDEQSGCHYGVVTCGSCKVFFKRAVEGQHNYLCAGRNDCIIDKIRRKNCPACRLQKCLQAGMNLGARKS | -0.037 ± 0.053 |
| SKICLVCGDEVSGCHYGVVTCGSCKVFFKRAVEGQHNYLCAGRNDCIIDKIRRKNCPACRLQKCLQAGMNLGARKS | -0.222 ± 0.047 |
| SKICLVCGDENSGCHYGVVTCGSCKVFFKRAVEGQHNYLCAGRNDCIIDKIRRKNCPACRLQKCLQAGMNLGARKS | 0.031 ± 0.078 |
| SKICLVCGDEESGCHYGVVTCGSCKVFFKRAVEGQHNYLCAGRNDCIIDKIRRKNCPACRLQKCLQAGMNLGARKS | -0.02 ± 0.057 |
| SKICLVCGDETSGCHYGVVTCGSCKVFFKRAVEGQHNYLCAGRNDCIIDKIRRKNCPACRLQKCLQAGMNLGARKS | -0.063 ± 0.064 |
| SKICLVCGDEAFGCHYGVVTCGSCKVFFKRAVEGQHNYLCAGRNDCIIDKIRRKNCPACRLQKCLQAGMNLGARKS | -0.173 ± 0.15 |
| SKICLVCGDEAAGCHYGVVTCGSCKVFFKRAVEGQHNYLCAGRNDCIIDKIRRKNCPACRLQKCLQAGMNLGARKS | -0.132 ± 0.073 |
| SKICLVCGDEACGCHYGVVTCGSCKVFFKRAVEGQHNYLCAGRNDCIIDKIRRKNCPACRLQKCLQAGMNLGARKS | -0.142 ± 0.11 |
| SKICLVCGDEAEGCHYGVVTCGSCKVFFKRAVEGQHNYLCAGRNDCIIDKIRRKNCPACRLQKCLQAGMNLGARKS | 0.103 ± 0.11 |
| SKICLVCGDEAIGCHYGVVTCGSCKVFFKRAVEGQHNYLCAGRNDCIIDKIRRKNCPACRLQKCLQAGMNLGARKS | 0.043 ± 0.11 |
| SKICLVCGDEAHGCHYGVVTCGSCKVFFKRAVEGQHNYLCAGRNDCIIDKIRRKNCPACRLQKCLQAGMNLGARKS | -0.117 ± 0.14 |
| SKICLVCGDEADGCHYGVVTCGSCKVFFKRAVEGQHNYLCAGRNDCIIDKIRRKNCPACRLQKCLQAGMNLGARKS | -0.238 ± 0.17 |
| SKICLVCGDEAGGCHYGVVTCGSCKVFFKRAVEGQHNYLCAGRNDCIIDKIRRKNCPACRLQKCLQAGMNLGARKS | -0.181 ± 0.074 |
